Test system: MS2 coat protein
Assay: apparent KD of MS2 coat protein; designed switch direction (-1 OFF switch, 1 ON switch): 1; higher = weaker reporter binding
How it was run: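 Transcription of designed RNA switches on Illumina chips was done by stalled E. coli RNA polymerase. SNAP-549-labelled MS2 coat protein was then titrated in doubling steps from 0.7 or 1.5 nM to 3 µM, with steps of 0.8–1.5 h at the lowest and 10–20 min at the highest concentration. The per-design median over clusters of curve-fitted normalised fluorescence is reported as apparent KD.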

[1] = Eterna round: R95, input ligand: FMN 200 uM
[2] = Eterna round: R95, input ligand: microRNA oligo, concentration not stated
[3] = Eterna round: R95, input ligand: none
[4] = input ligand: microRNA oligo, concentration not stated

Sequence | apparent KD of MS2 coat protein [1] [nM] | apparent KD of MS2 coat protein [2] [nM] | apparent KD of MS2 coat protein [3] [nM] | apparent KD of MS2 coat protein (input ligand: FMN 200 uM) [nM] | apparent KD of MS2 coat protein [4] [nM] | apparent KD of MS2 coat protein (input ligand: none) [nM]
ACGCAGCUAGGUGAGGAUAUCGGUGGUAAAACAUGAGGAUCACCCAUGUCCGAAGCUCGGACUUCCGAGAAGGCGCCCGGCUGCA [Velaberi] (puzzle: Same State 2) | 13.9 | 64.2 | 96.2 | – | – | –
AGCUAUCGAAAACGAUAGCAAAAGCAUGUACAUGAGGAUCACCCAUGUCAUGUAUAAGCUUUUUGCUCGUCUUAAAA [Zipper 23 - 12] (puzzle: Sensor for hsa-mir-208a) | 42.7 | 9.86 | 34.4 | – | – | –
UAGAAUCUAUCUCAGGAUAUCAUGUCAAAGACAUGAGGAUCACCCAUGUACCAGGAAACUGGUUAUGAGAAGGGAGAUAGAUUCA [Mat - Same State 2 - Mod - D34] (puzzle: Same State 2) | 124 | 98.3 | 241 | – | – | –
UGUACCUUCACAGGAUAUCAUGCGAAAAUUGCGUGAGAAGGGUGAAUACGGUGUUAAUAAAAGCACAUGAGGAUCACCCAUGUA [SameState NG1 #56] (Eterna round: R96, puzzle: Same State NG 1) | – | – | – | 303 | 246 | 471
GGAAGGAGGUCAGGAUAUGAAUGGAUGGGACAUGAGGAUCACCCAUGUAAUAGAAGAAAUCUACAUUAGAAGGGACAAGGAAGG [AK SSNG2-V2-5] (Eterna round: R96, puzzle: Same State NG 2) | – | – | – | 105 | 83.2 | 130
GCUGGAAACCACAUGAGGAUCACCCAUGUUCCGGAAACGGCACAGGAUAUCUGUCCGAAAAGGUCAGAGAAGGGUGAAACCAGC [Fiskers NG3ss - 83] (Eterna round: R96, puzzle: Same State NG 3) | – | – | – | 263 | 114 | 188
GGUCCAGCCUGAGCUGGACAAAAGCAUGUACAUGAGGAUCACCCAUGUCGUGUACAAGCUUUUUGCUCGUCUUAAAA [JL mod - D87 - 5] (puzzle: Sensor for hsa-mir-208a) | 215 | 13.9 | 296 | – | – | –
UGCUAUUGUAUAUUGGUGCAAGCUUUUUGACAUGAGGAUCACCCAUGUACUCGUCUUUAGCGCAGUCCGUAGACUGC (puzzle: Sensor for hsa-mir-208a) | 52.4 | 13.5 | 56.6 | – | – | –
GCGGAGACGUCAGGAUAUCCAUGGAAGACACAUGAGGAUCACCCAUGUGGGAGGGAAACCAGGAGGGAGAAGGGACGGAAACGC [ssng2 v2 d] (Eterna round: R96, puzzle: Same State NG 2) | – | – | – | 10 | 9.63 | 14.1
GGAAUAUGAUGUUACAUGAGGAUCACCCAUGUAGUAAUAACUAAGGAUAUCUGAAAGGGAGGAGAAGAGAAGGUAGGAUCAUAA [AK SSNG3-V2-10.2] (Eterna round: R96, puzzle: Same State NG 3) | – | – | – | 60 | 35.4 | 56.4
GGCUAUCGCGUACGAUAGCUUAAGCAUGUACAUGAGGAUCACCCAUGUCAUGUACAAGCUUUUUGCUCGGCUUAUUG (puzzle: Sensor for hsa-mir-208a) | 119 | 14.3 | 132 | – | – | –
CGGGUACAUGAGGAUCACCCAUGUGGGAGAGAUGCAGGAUAUGUGGGAAAAGGGAAUGUAACAGAAGGGCAAGGAG [JR_SS!_Sub015] (puzzle: Same State 1) | 220 | 128 | 124 | – | – | –
GGUCCGGCCUGAGCUGGACCGGAGCAUGUACAUGAGGAUCACCCAUGUCAUGUACAGGCUUCUUGCUCGUCUUGUUG [JL-shm-2.16 JL Mod] (puzzle: Sensor for hsa-mir-208a) | 314 | 15 | 421 | – | – | –
CUUCGCGCCGCAGGAUAUGCCGACCCGUGUUGAGCAGAAGGGCGAGACAUGAGGAUCACCCAUGUCUAAAGAGCGCAUCAAUAA [Esedlaedbi] (Eterna round: R96, puzzle: Same State NG 1) | – | – | – | 23.1 | 18.9 | 45.9
GCAGGACGGUAAAACAUCUCACAUGAGGAUCACCCAUGUUGUGAGGAUAUGGAUCCUAAUUGGAUCCAGAAGGCACGGUCCUGC [Fiskers NG3ss - 30] (Eterna round: R96, puzzle: Same State NG 3) | – | – | – | 24.9 | 17.7 | 27.8
CACGUCUAGGUAGGAUAUGAGGUGCCACAGGGAAAAGCCUAUGGACAUGAGGAUCACCCAUGUCCUCAGAAGGGCCAGACGUGA [Inzala] (Eterna round: R96, puzzle: Same State NG 2) | – | – | – | 25.9 | 36.9 | 52.4
GAGUGGUAAAGAGGAUAUGCAUUGUUAUUCACUGUAGAAGGUUUUAACAUGAGGAUCACCCAUGUAGGACUAUUCCUGUGUUUU [Parity 61 - Jieux - Same State NG 1] (Eterna round: R96, puzzle: Same State NG 1) | – | – | – | 12.4 | 12.4 | 18.8
CGCCAGAGAGCAGGAUAUGGGCCACGGCCUAAGGGCUGUGAACUCACAUGAGGAUCACCCAUGUCCCAGAAGGGCUCCUGGCGG [Veatzain] (Eterna round: R96, puzzle: Same State NG 2) | – | – | – | 62.4 | 1240 | 2110
CGGGUACAUGAGGAUCACCCAUGUGGGAGGGAUGCAGGAUAUGUGGGAAAAGGGUAUGAAACAGAAGGGCAAGGAG [JR_SS!_Sub013] (puzzle: Same State 1) | 29.6 | 33.2 | 35.1 | – | – | –
AUGGUGCAGGUACAGGAUAUGUUGCUCGUAACAUGAGGAUCACCCAUGUACCUAUGAGAAUAAAUGCAGAAGGGUGCACACCACG [Mat - Same State 2 - Mod of UCT - D92] (puzzle: Same State 2) | 57 | 3220 | 156 | – | – | –
GGUGCAAUAAACGCCUACAUGAGGAUCACCCAUGUAUGUAGGCAGGAUAUCGUUUGCAAAGCAAACGAGAAGGGCUAUAGUACC [Mat - Same State NG 3 - JL Mod - D44] (Eterna round: R96, puzzle: Same State NG 3) | – | – | – | 56.2 | 123 | 161
UGGCUCAGACGAGGAUAUAUGUAAUAACAUGAGGAUCACCCAUGUGUCGAGCUUCGGCUCGACACAUAGAAGGCGUCUGAGCCA [SSNG2/2-A2] (Eterna round: R96, puzzle: Same State NG 2) | – | – | – | 14.7 | 17.9 | 28.2
GCGGAACAUGAGGAUCACCCAUGUGGAGGGUGUAAAGGAUAUUAUAGAGAGAAGGUAGGGUAAGAAGGUUGCUGGG [JR_SS1_Sub090] (puzzle: Same State 1) | 624 | 320 | 592 | – | – | –
GGUCCAGCCUGAGCUGGACAGAAGCAUGUACAUGAGGAUCACCCAUGUCAUGUACAAGCUUUUUGCUCGUCUUAAAA [JL mod - D87 - 1] (puzzle: Sensor for hsa-mir-208a) | 439 | 13.2 | 498 | – | – | –
GCGAGCGUACUUGCUACAUGAGGAUCACCCAUGUUUACUGGACAGGAUAUGGUACCGUUUCGGUACCAGAAGGGUUCAUCAUGU [JL SSNG3 3.69] (Eterna round: R96, puzzle: Same State NG 3) | – | – | – | 278 | 248 | 597
CGUCCGGCCUGAGCUGGACGGAGGCAUGUACAUGAGGAUCACCCAUGUUCAUGUGCAGGCUUUUUGCUCGUCUUGUG [JL-shm-2.07 JL mod] (Eterna round: R96, puzzle: Sensor for hsa-mir-208a) | – | – | – | 62.8 | 10.6 | 57.8
AUUAUUAAUGCAGGAUAUGAUUAACAUGAGGAUCACCCAUGUGGUGUUGUGAGUAAGGAGAGUGAUCAGAAGGGCAUUUUGUUU [JMF's solution 12] (Eterna round: R96, puzzle: Same State NG 2) | – | – | – | 1130 | 526 | 591
